Source: patent US6350609B1, “Electrospraying for mass fabrication of chips and libraries” (New York University, priority 1997, dated 2002)
Several values for one entry are separate records, joined by “and”; a condition that tells them apart may be missing. Equal values may be shown once.

B1: AP: Alkaline phosphatase (AP) from bovine intestinal mucosa, Sigma (protein, UniProt P19111 20-506, looked up)
Intestinal-type alkaline …: LVPVEEEDPAFWNRQAAQALDVAKKLQPIQTAAKNVILFLGDGMGVPTVTATRILKGQMNGKLGPETPLAMDQFPYVALSKTYNVDRQVPDSAGTATAYLCGVKGNYRTIGVSAAARYNQCKTTRGNEVTSVMNRAKKAGKSVGVVTTTRVQHASPAGAYAHTVNRNWYSDADLPADAQMNGCQDIAAQLVNNMDIDVILGGGRKYMFPVGTPDPEYPDDASVNGVRKRKQNLVQAWQAKHQGAQYVWNRTALLQAADDSSVTHLMGLFEPADMKYNVQQDHTKDPTLQEMTEVALRVVSRNPRGFYLFVEGGRIDHGHHDDKAYMALTEAGMFDNAIAKANELTSELDTLILVTADHSHVFSFGGYTLRGTSIFGLAPSKALDSKSYTSILYGNGPGYALGGGSRPDVNDSTSEDPSYQQQAAVPQASETHGGEDVAVFARGPQAHLVHGVEEETFVAHIMAFAGCVEPYTDCNLPAPTTATSIPD

Assays:
[1] = target: Cytochrome C (equine) (Equus caballus, UniProt P00004); assay: Mechano-chemical effect of a specific ligand on cross-linked protein film (isometric tension); format: biochemical; conditions: electrospray deposited, reduction with dithionite
Chain of Cytochrome C (equine) (P00004 whole entry): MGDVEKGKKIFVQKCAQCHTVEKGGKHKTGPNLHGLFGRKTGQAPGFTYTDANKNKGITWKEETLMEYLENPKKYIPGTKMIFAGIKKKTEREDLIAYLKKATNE

[2] = target: T1, alkaline phosphatase (Bos taurus, UniProt P19111); assay: Enzyme activity of electrospray-deposited alkaline phosphatase on nitrocellulose filter (BCIP/NBT substrate); format: biochemical; conditions: deposited through polypropylene mask onto wetted nitrocellulose filter; BCIP/NBT staining
T1 construct: purchased Sigma Chemical Company, St. Louis, Mo
Excerpt: The electrospray conditions used in this example were similar to those used in Example 1.
Likewise, the membrane filters on which alkaline phosphatase was deposited was soaked in a standard alkaline phosphatase substrate (5-bromo-4-chloro-3-indolyl phosphate/nitro blue tetrazolium substrate system kit, Sigma, St. Louis, Mo.), resulting in the formation of an insoluble blue colored product of the alkaline phosphatase reaction, and the pattern was visualized as shown in FIG. 12B.

[3] = Engström, 1961; cited from earlier work
[4] = target: T2, Alkaline phosphatase (AP) from bovine intestinal mucosa (Bos taurus, UniProt P19111); assay: Recovery of specific AP activity (pNPP) after electrospray deposition or drying; format: biochemical; conditions: for Activity % (ratio of specific activity of the electrospray-deposited AP to that in the initial solution): +(3-4) kV, 1-50 nA, 0.1 μL/min, tip distance 10 mm, humidity 65 ± 5%
T2 construct: purchased Sigma Chemical Co., St. Louis, Mo; host or cells: bovine intestinal mucosa
Excerpt: Materials. Alkaline phosphatase (AP) from bovine intestinal mucosa, p-nitrophenyl phosphate (pNPP substrate table set, Sigma Fast), trehalose and sucrose were obtained from Sigma Chemical Co., St. Louis, Mo. All other salts and buffer reagents were of analytical grade.
Design of Capillaries for Electrospray. Three different designs of the electrospray capillaries have been tested throughout this study. A first design, shown in FIG. 20A, is similar to the “nanoelectrospray ion source” (Wilm et al., 1994 and 1996) with a silver layer plated on the external surface of the capillary instead of gold. Glass capillaries with sealed ends were first treated for 20 seconds with an electrodeless plasma discharge at reduced pressure (0.01 Torr, discharge power of 10-20 W, in a Pyrex class chamber, 0.25 L). After such plasma cleaning, the glass capillaries were activated in an acidified solution of SnCl2 and 50 g of HCl per 1 L), washed with water and covered with a silver “mirror” (Yampolskii et al., 1981). This design is referred to as a capillary with an external electrode.
A second design, shown in FIG. 20B, is a modification of an electrospray capillary described by the laboratory of the present inventors (Morozov et al., 1993). In this capillary metal electrode (tungsten or stainless steel wire) is not exposed to a gas phase, thus reducing the risk of cornea discharge at high voltages. This second design is referred to as a capillary with an inner electrode.
In a third design, of the capillary (referred to as a bridge capillary), contact of protein solutions with a metal electrode was completely avoided by introducing a liquid bridge between them. […] Since the cross-section of the external capillary 5 is more than ten times larger than that of the inner capillary 7, the conductivity of the external capillary exceeds […] the conductivity of the inner capillary, making most of the current go through the large external capillary 5, whereas the internal plastic capillary 7 is used to supply protein solution.
A microprocessor controlled syringe pump (Cole-Parmer, Niles, Ill.) in combination with a 10 μL Hamilton microsyringe was used to feed the electrospray capillaries. The flow rate was 6-9 μL/h, and the outer diameter of the capillary tips varied in different experiments between 50 and 100 μm.
Chamber with Controlled Humidity. To control humidity during electrospray experiments with enzymes and to protect protein samples from contamination with dust particles present in the ambient air, the electrospray deposition was performed in a small (0.5 L) nearly cubic acrylic box, schematically presented in FIG. 21. A glass window was glued to one side of the box to enable sharp observation of the electrospray torch and substrate under a stereo microscope. The humidity and temperature inside the chamber were measured with solid state digital sensors (Fisher) with 2-4% precision for humidity and 0.2° C. for temperature. To increase the rate of sensor response and to keep the same humidity in all parts of the chamber, the air was stirred with a small fan. Dry air from a tank or air bubbled through water was introduced into the chamber until the required humidity was reached. The fan was then stopped, and electrospray initiated. Occasionally, portions of dry or wet gas were added during the spray experiment if the humidity deviated by more than 3-5% from the required level.
Mass Measurements of the Electrospray-Deposited Proteins. A home-built Quartz Crystal Microbalance (QCM; Sauerbrey, 1959) was used to measure the mass of the electrospray-deposited protein. The microbalance was made of commercial AT-cut quartz crystals (12-17 MHz, with silver electrodes of 5 mm in diameter) after removal of their protective shells. QCM calibration was performed using 0.1% solution of sugar in water. […]

[5] = target: Bovine intestinal AP (Bos taurus, UniProt P19111); conditions: McComb et al., 1979; cited from earlier work

| Molecule | Effect in Electrospray Deposit Sample % (relative change in isometric tension) [1] | enzymatic activity after electrospray deposition [2] | pI [3] | Activity % (ratio of specific activity of the electrospray-deposited AP to that in the initial solution) ([4]; Bridge Type capillary) | AP activity after electrospray deposition at high voltage and current ([4]; V>7-8 kV, I>500-1500 nA) | AP activity preserved upon drying ([4]; addition of 50% (w/w) of disaccharide (sucrose or trehalose)) | difference in specific AP activity of deposits made at low current before and after electrospray at 1500 nA from the same capillary ([4]; capillaries with internal and external electrodes) | Activity % (ratio of specific activity of the electrospray-deposited AP to that in the initial solution) ([4]; capillary with External Electrode) | Activity % (ratio of specific activity of the electrospray-deposited AP to that in the initial solution) ([4]; capillary with Internal Electrode) | AP inactivation upon electrospray deposition ([4]; capillary with internal electrode, humidity A=65%, currents not exceeding 50 nA) | decrease of AP activity upon electrospray deposition under low humidity ([4]; rapid drying of droplets in gas phase, low humidity, +4 kV, internal electrode, 10-50 nA, 6 μL/h) | AP inactivation upon electrospray deposition ([4]; the two other capillary designs (external electrode, bridge), similar currents and humidity) | pH of exposure causing irreversible inactivation [5] |
| --- | --- | --- | --- | --- | --- | --- | --- | --- | --- | --- | --- | --- | --- |
| O=S(O)S(=O)O [dithionite] | −41% and −49% | – | – | – | – | – | – | – | – | – | – | – | – |
| B1 | – | retained | 4.4 | 31 ± 12% | loses nearly all of its activity | 100% | no notable difference | 32 ± 9% | 55 ± 10% | approximately 45% | 30% | 70% | 4.5-5.0 |
